Publication PMC6435475, “Structural and functional characterisation of the entry point to pyocyanin biosynthesis in Pseudomonas aeruginosa defines a new 3-deoxy-D-arabino-heptulosonate 7-phosphate synthase subclass” (Bioscience Reports, 2018)

Assays:
[1] = system: O=C[C@H](O)[C@H](O)COP(=O)(O)O; assay: purified protein; conditions: PEP 150 μM, Co2+ 100 μM, pH 7.5, 37 °C
Description: (§1) initial-rate UV-Vis spectrophotometric assay on PaeDAH7PS^PA1901 (type II DAH7PS, phzC)

[2] = system: C=C(OP(=O)(O)O)C(=O)O; assay: purified protein; conditions: E4P 150 μM, Co2+ 100 μM, pH 7.5, 37 °C
Description: as §1

[3] = target: the molecule itself; assay: crystal structure; microbatch crystallisation, protein 3-5 mg/ml (67-112 uM), 0.2 M sodium fluoride, 1 mM cobalt chloride, 1 mM PEP, 18% PEG 3350, 278 K; space group C222(1), two chains in the asymmetric unit, tetramer by a two-fold crystallographic symmetry operation
[4] = target: the molecule itself; assay: SEC-SAXS; injection concentration 8.0 mg/ml (180 uM; also 5.0 mg/ml), Superdex S200, 50 mM bis-tris propane pH 7.5, 100 uM cobalt chloride, 200 uM PEP, 5% glycerol, 293 K; elution peak deconvoluted into two Gaussian components (peaks A and B)

PaeDAH7PS^PA1901 (type II DAH7PS, phzC) (Pseudomonas aeruginosa PAO1)
Km [1]: 16 ± 3 µM
kcat [1]: 19.8 ± 0.4 s⁻¹
kcat/Km [1]: 1.24e+06 ± 150000 M⁻¹ s⁻¹
Km [2]: 17 ± 1 µM
kcat [2]: 19.8 ± 0.4 s⁻¹
kcat/Km [2]: 1.16e+06 ± 100000 M⁻¹ s⁻¹

B1: PaeDAH7PS^PA1901 (3-deoxy-D-arabino-heptulosonate 7-phosphate synthase encoded by phzC, Pseudomonas aeruginosa PAO1) (enzyme)
chain: MDDLLQRVRRCEALQQPEWGDPSRLRDVQAYLRGSPALIRAGDILALRATLARVARGEALVVQCGDCAEDMDDHHAENVARKAAVLELLAGALRLAGRRPVIRVGRIAGQYAKPRSKPHEQVGEQTLPVYRGDMVNGREAHAEQRRADPQRILKGYAAARNIMRHLGWDAASGQEANASPVWTSHEMLLLDYELSMLREDEQRRVYLGSTHWPWIGERTRQVDGAHVALLAEVLNPVACKVGPEIGRDQLLALCERLDPRREPGRLTLIARMGAQKVGERLPPLVEAVRAAGHPVIWLSDPMHGNTIVAPCGNKTRLVRSIAEEVAAFRLAVSGSGGVAAGLHLETTPDDVTECVADSSGLHQVSRHYTSLCDPRLNPWQALSAVMAWSGAEAIPSATFPLETVA
notes: 3-deoxy-D-arabino-heptulosonate 7-phosphate synthase (type II DAH7PS) encoded by phzC, ORF PA1901 (duplicated as PA4212), Pseudomonas aeruginosa PAO1; the ORF was amplified from gDNA; residues up to 405 are named; measured mass of a single chain 44470 Da (calculated 44468 Da); Homodimer in solution at low concentration (AUC, SEC-SAXS); homotetramer in the crystal and at high concentration in …
stoichiometry N [3]: 4
stoichiometry N [4]: 2
